Test results from IntAct's records for PubMed 31515488.

B1: Phospholipid scramblase 4 (Homo sapiens), Q9NRQ2 (parent)
chain: MSGVVPTAPEQPAGEMENQTKPPDPRPDAPPEYNSHFLPGPPGTAVPPPTGYPGGLPMGYYSPQQPSTFPLYQPVGGIHPVRYQPGKYPMPNQSVPITWMPGPTPMANCPPGLEYLVQLDNIHVLQHFEPLEMMTCFETNNRYDIKNNSDQMVYIVTEDTDDFTRNAYRTLRPFVLRVTDCMGREIMTMQRPFRCTCCCFCCPSARQELEVQCPPGVTIGFVAEHWNLCRAVYSIQNEKKENVMRVRGPCSTYGCGSDSVFEVKSLDGISNIGSIIRKWNGLLSAMADADHFDIHFPLDLDVKMKAMIFGACFLIDFMYFERSPPQRSR
B2: Coiled-coil domain-containing protein 172 (Homo sapiens), P0C7W6 (parent)
chain: MSLESLFQHIIFTEHQAEESRRLMREVRSEITRCREKIKKATEELNEEKIKLESKVQQFFEKSFFLQLLKAHENALEKQYSEITNHRNMLLQTFEAIKKQMIEEEDKFIKEITDFNNDYEITKKRELLMKENVKIEISDLENQANMLKSEMKSMEHDSSQLNELQKQKSELIQELFTLQRKLKVFEDEENESICTTKYLEAEKIKISEKPQNDTECLRLKKELELYKEDDMESVYEALQTEIEFLELTLAQKDLQESK
partner: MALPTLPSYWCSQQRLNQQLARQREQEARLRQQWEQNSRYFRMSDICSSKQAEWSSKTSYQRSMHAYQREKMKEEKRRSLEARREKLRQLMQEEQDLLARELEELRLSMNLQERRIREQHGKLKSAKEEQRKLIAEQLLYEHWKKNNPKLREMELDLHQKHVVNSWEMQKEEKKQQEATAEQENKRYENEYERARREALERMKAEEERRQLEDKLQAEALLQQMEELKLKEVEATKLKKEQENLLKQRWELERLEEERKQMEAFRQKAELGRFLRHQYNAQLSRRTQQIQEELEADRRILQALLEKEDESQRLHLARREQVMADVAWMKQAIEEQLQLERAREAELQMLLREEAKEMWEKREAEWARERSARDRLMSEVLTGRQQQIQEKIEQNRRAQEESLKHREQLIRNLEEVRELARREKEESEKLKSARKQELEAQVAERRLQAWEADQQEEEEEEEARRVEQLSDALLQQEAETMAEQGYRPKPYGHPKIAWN
B3: F-box/WD repeat-containing protein 1A (Homo sapiens), Q9Y297 (parent)
chain: MDPAEAVLQEKALKFMCSMPRSLWLGCSSLADSMPSLRCLYNPGTGALTAFQNSSEREDCNNGEPPRKIIPEKNSLRQTYNSCARLCLNQETVCLASTAMKTENCVAKTKLANGTSSMIVPKQRKLSASYEKEKELCVKYFEQWSESDQVEFVEHLISQMCHYQHGHINSYLKPMLQRDFITALPARGLDHIAENILSYLDAKSLCAAELVCKEWYRVTSDGMLWKKLIERMVRTDSLWRGLAERRGWGQYLFKNKPPDGNAPPNSFYRALYPKIIQDIETIESNWRCGRHSLQRIHCRSETSKGVYCLQYDDQKIVSGLRDNTIKIWDKNTLECKRILTGHTGSVLCLQYDERVIITGSSDSTVRVWDVNTGEMLNTLIHHCEAVLHLRFNNGMMVTCSKDRSIAVWDMASPTDITLRRVLVGHRAAVNVVDFDDKYIVSASGDRTIKVWNTSTCEFVRTLNGHKRGIACLQYRDRLVVSGSSDNTIRLWDIECGACLRVLEGHEELVRCIRFDNKRIVSGAYDGKIKVWDLVAALDPRAPAGTLCLRTLVEHSGRVFRLQFDEFQIVSSSHDDTILIWDFLNDPAAQAEPPRSPSRTYTYISR
B4: Protein BANP (Homo sapiens), Q8N9N5 (parent)
chain: MMSEHDLADVVQIAVEDLSPDHPVVLENHVVTDEDEPALKRQRLEINCQDPSIKTICLRLDSIEAKLQALEATCKSLEEKLDLVTNKQHSPIQVPMVAGSPLGATQTCNKVRCVVPQTTVILNNDRQNAIVAKMEDPLSNRAPDSLENVISNAVPGRRQNTIVVKVPGQEDSHHEDGESGSEASDSVSSCGQAGSQSIGSNVTLITLNSEEDYPNGTWLGDENNPEMRVRCAIIPSDMLHISTNCRTAEKMALTLLDYLFHREVQAVSNLSGQGKHGKKQLDPLTIYGIRCHLFYKFGITESDWYRIKQSIDSKCRTAWRRKQRGQSLAVKSFSRRTPNSSSYCPSEPMMSTPPPASELPQPQPQPQALHYALANAQQVQIHQIGEDGQVQVGHLHIAQVPQGEQVQITQDSEGNLQIHHVGQDGQLLEATRIPCLLAPSVFKASSGQVLQGAQLIAVASSDPAAAGVDGSPLQGSDIQVQYVQLAPVSDHTAGAQTAEALQPTLQPEMQLEHGAIQIQ
partner: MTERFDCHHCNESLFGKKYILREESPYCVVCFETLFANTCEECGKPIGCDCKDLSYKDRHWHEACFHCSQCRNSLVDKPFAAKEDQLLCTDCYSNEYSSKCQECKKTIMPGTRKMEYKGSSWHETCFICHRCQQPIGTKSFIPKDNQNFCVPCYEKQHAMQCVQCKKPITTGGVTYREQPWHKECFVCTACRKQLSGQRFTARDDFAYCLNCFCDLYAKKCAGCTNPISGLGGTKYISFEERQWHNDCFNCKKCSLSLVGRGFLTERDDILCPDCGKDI

Variants of: B1
Settings: with pls1_human PLSCR1, O15162
Sequence of pls1_human PLSCR1, O15162 (O15162 whole entry): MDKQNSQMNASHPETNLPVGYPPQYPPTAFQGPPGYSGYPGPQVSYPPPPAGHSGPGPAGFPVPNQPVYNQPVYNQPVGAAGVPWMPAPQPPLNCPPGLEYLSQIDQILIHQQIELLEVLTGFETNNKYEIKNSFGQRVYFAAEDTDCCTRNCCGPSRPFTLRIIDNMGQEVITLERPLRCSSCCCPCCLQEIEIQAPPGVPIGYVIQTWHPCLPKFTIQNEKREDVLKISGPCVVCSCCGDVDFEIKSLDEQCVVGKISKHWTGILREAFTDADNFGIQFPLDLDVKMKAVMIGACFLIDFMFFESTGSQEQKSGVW

Question: With I155V as the variant, how does the “effect of a mutation on the interaction” value read?
Answer: The value was “with no effect”.

Question: A107S was tested. Which “effect of a mutation on the interaction” value did it give?
Answer: Its value is “with no effect”.

Question: For N34S, which “effect of a mutation on the interaction” value is on record?
Answer: Its value is “with no effect”.

Variants of: B1
Settings: with mtus2_human MTUS2, Q5JR59
Sequence of mtus2_human MTUS2, Q5JR59 (Q5JR59 whole entry): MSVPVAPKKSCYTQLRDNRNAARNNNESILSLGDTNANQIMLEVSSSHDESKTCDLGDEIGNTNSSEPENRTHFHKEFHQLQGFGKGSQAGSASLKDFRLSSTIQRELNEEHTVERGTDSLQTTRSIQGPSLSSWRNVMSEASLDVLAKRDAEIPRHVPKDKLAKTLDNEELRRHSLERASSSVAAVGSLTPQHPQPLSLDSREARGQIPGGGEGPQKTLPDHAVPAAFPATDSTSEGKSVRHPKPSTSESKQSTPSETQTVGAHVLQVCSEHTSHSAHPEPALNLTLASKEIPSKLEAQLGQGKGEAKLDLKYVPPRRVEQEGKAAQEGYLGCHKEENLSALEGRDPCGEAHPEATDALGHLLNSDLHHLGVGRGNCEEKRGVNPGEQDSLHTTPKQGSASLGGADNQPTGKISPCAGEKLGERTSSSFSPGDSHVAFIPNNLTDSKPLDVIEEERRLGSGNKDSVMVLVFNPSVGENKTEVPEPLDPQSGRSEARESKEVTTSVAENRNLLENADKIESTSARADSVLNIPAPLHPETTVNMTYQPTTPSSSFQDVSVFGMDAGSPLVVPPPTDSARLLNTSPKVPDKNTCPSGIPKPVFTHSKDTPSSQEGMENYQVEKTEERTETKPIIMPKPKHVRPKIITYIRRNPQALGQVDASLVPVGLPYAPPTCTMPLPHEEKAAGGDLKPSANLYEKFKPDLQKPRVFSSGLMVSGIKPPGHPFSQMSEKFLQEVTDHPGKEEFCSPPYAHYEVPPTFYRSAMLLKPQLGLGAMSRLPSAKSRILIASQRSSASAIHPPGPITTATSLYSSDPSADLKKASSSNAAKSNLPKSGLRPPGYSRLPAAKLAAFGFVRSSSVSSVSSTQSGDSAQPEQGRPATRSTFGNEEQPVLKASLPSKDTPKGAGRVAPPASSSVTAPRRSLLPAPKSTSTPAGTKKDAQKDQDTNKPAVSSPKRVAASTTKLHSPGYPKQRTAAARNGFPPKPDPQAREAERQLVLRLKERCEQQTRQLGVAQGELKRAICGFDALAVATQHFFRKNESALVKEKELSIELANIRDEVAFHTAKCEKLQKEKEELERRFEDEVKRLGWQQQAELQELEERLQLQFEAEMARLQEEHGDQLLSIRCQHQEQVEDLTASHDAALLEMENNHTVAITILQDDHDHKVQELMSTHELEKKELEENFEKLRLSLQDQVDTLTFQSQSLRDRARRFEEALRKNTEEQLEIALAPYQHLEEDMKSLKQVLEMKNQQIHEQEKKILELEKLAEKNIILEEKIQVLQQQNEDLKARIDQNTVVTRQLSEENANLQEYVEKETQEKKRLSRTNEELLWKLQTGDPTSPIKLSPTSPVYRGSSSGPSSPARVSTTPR

Question: How did the “effect of a mutation on the interaction” value turn out when I155V was run?
Answer: Its value is “with no effect”.

Question: How did the “effect of a mutation on the interaction” value turn out when A107S was run?
Answer: Its value is “with no effect”.

Question: For N34S, which “effect of a mutation on the interaction” value is on record?
Answer: The value was “with no effect”.

Variants of: B1
Settings: with nt2na_human NOTCH2NLA

Question: Which “effect of a mutation on the interaction” value does the source give for I155V here?
Answer: The value was “with no effect”.

Question: A107S was tested. Which “effect of a mutation on the interaction” value did it give?
Answer: Its value is “with no effect”.

Question: Which “effect of a mutation on the interaction” value does the source give for N34S here?
Answer: Its value is “with no effect”.

Variants of: B2
Settings: with tchp_human TCHP

Question: For I10V, which “effect of a mutation on the interaction” value is on record?
Answer: The value was “with no effect”.

Variants of: B3
Settings: with tacc1_human TACC1, O75410
Sequence of tacc1_human TACC1, O75410 (O75410 whole entry): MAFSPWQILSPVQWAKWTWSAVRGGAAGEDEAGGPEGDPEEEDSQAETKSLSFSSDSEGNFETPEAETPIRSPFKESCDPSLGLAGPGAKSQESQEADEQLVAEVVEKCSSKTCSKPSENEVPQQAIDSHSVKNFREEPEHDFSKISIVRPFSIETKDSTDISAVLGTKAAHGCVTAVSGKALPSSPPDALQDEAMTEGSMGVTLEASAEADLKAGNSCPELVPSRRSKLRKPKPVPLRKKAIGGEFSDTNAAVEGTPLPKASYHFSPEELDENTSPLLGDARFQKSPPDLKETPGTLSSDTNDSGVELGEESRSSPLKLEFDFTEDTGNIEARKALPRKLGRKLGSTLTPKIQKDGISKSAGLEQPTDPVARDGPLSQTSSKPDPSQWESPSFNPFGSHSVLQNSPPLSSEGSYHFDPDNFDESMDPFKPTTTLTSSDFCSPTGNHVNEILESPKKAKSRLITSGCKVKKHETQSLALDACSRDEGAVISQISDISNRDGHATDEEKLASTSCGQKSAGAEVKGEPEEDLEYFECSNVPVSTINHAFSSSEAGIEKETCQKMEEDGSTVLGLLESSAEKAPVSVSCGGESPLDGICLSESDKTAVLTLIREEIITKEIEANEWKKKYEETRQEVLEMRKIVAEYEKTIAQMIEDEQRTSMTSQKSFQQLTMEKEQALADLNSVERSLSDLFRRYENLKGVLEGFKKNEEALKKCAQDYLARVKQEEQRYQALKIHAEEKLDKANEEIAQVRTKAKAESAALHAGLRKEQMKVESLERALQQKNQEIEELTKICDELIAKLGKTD

Question: How did the “effect of a mutation on the interaction” value turn out when P592H was run?
Answer: Its value is “with no effect”.

Question: With T601S as the variant, how does the “effect of a mutation on the interaction” value read?
Answer: The value was “with no effect”.

Variants of: B4
Settings: with fhl2_human FHL2, Q14192

Question: P348S was tested. Which “effect of a mutation on the interaction” value did it give?
Answer: The value was “with no effect”.
